Measured values published in article doi:10.1101/2025.04.16.649111, “Nanobinders for Synaptotagmin 1 enable the analysis of synaptic vesicle dynamics in rodent and human models” (bioRxiv, 2025).
One block for each binder: values may come before it.

Legend:
Details in all cases: one partner purified
[1] = target: T1, endogenous Synaptotagmin 1 of mouse brain and mouse neurons (mouse (endogenous in brain and primary …, UniProt P46096)); assay: co-IP; immunoprecipitation: GFP-tagged nanobody pre-loaded on GFP Selector beads, incubated 1 h at 4 °C with pre-cleared lysate of WT or Syt1 KO mouse brain; blot with Syt1 cytoplasmic antibody
T1 construct: Synaptotagmin 1, mouse, endogenous whole protein (in brain extract for the immunoprecipitation, on living neurons for the uptake); also called endogenous Syt1; Syt1; source: endogenous, WT mouse brain lysate; endogenous, mouse primary neurons
T1 sequence (P46096 whole entry): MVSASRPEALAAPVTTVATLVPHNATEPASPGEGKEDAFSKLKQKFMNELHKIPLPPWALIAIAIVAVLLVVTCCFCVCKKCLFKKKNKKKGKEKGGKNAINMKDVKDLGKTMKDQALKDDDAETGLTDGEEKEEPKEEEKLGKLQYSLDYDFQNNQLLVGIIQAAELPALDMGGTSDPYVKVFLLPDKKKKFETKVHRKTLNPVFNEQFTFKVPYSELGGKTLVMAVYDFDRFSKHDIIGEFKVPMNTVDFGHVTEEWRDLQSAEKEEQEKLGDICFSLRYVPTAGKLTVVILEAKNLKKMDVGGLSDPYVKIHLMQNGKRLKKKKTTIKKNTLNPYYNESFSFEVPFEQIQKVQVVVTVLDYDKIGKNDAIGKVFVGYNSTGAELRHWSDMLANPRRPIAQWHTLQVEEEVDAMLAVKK

[2] = target: T2, endogenous human Synaptotagmin 1 in human iPSC-derived hypothalamic-like neurons (human, UniProt P21579); assay: immunostaining of cells or tissue; live uptake in 80-day old human iPSC-derived hypothalamic neurons: surface pool blocked with 4.85 µM unlabeled nanobody, then 5.5 µM pHluorin-labelled nanobody with 30 mM KCl or 1 µM TTX, 20 min at 37 °C; fixed, anti-GFP and anti-Syt1
T2 construct: Synaptotagmin 1, human, endogenous; also called human Syt1; source: endogenous, human iPSC-derived hypothalamic neurons (living cells)
T2 sequence (P21579 whole entry): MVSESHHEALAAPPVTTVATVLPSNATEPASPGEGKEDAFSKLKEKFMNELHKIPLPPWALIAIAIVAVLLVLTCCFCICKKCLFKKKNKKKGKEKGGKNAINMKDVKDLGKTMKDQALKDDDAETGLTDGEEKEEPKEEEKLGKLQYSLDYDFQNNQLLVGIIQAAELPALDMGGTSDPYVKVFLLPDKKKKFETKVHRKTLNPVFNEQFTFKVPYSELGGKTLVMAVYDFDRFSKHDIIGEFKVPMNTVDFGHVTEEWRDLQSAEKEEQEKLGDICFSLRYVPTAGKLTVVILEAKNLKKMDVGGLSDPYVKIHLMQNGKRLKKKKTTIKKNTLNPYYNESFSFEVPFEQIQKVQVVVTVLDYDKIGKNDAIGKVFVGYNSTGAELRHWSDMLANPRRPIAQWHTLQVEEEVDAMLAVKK

[3] = target: T3, endogenous Synaptotagmin 1 of primary hippocampal neurons (rat) (rat (endogenous in hippocampal neurons), UniProt P21707); assay: proximity labelling; NbLumSyt1-APEX2 taken up live by primary neurons (30 min with biotin-phenol), 1 mM H2O2 for 30 s; streptavidin bead enrichment, LC-MS/MS; controls NbALFA-APEX2 or no nanobody
T3 construct: Synaptotagmin 1, endogenous in primary hippocampal neurons; the spectra were searched against the Rattus norvegicus proteome (UP000234681) and neurons were in most cases from Wistar pups; also called Syt1; Syt1-lum; source: endogenous, primary hippocampal neurons (living cells)
T3 sequence (P21707 whole entry): as the sequence (P46096 whole entry) above, with R6H counted along it

binding result [1]: binds
B1: NbLumSyt1 fused to a GFP-tag (VHH)
VHH: EVQLVESGGGLVQTGGSLRLSCTASGSIGSISVMGWYRQVPGTQYELVAGISRGGSTWYEDSVKGRFTISRDNAKNTLYLQMNSLKPEDTGMYYCAGGDYSDRLGSWGQGTQVTVSS
notes: as the VHH of m1: NbLumSyt1, clone 1F12; PDB 8B8I chain A; Held on GFP Selector beads in the immunoprecipitation; detected with anti-GFP in the uptake assay; also called GFP tagged Nanobody; GFP-tagged nanobody; source: E. coli NEB SHuffle Express T7, purified (Ni-NTA, protease elution, MonoQ)

binding result [2]: binds
B2: NbLumSyt1-pHluorin (VHH)
VHH: B1 VHH
notes: as the VHH of m1: NbLumSyt1, clone 1F12; PDB 8B8I chain A; Detected with anti-GFP after fixation in the human neuron uptake; also called pHluorin-labelled Syt1 nanobody; Syt1 pHluorin Nb; source: E. coli NEB SHuffle Express T7, purified (Ni-NTA, protease elution, MonoQ)

binding result [3]: binds
B3: NbLumSyt1-APEX2 (VHH)
VHH: B1 VHH
notes: as the VHH of m1: NbLumSyt1, clone 1F12; PDB 8B8I chain A; also called Nb-APEX2
